# ± gives the uncertainty stated by the source.
# B1: Transcription factor SOX-11, residues 50 to 117; numbered along this chain, P35716 (parent)
# chain: KRPMNAFMVWSKIERRKIMEQSPDMHNAEISKRLGKRWKMLKDSEKIPFIREAERLRLKHMADYPDYK
# Variants of: B1
# Assay: abundance fitness (aPCA) (normalised: wild type 0, dead -1); higher = more abundant; growth selection in yeast, the domain comes from the species named
# Conditions: Homo sapiens
row,Variant,abundance fitness
1,K17S,-0.518 ± 0.067
2,K17C,-0.527 ± 0.075
3,K17I,-0.403 ± 0.065
4,Y67P,0.151 ± 0.11
5,K36L,0.034 ± 0.057
6,K36G,-0.219 ± 0.064
7,K36A,0.084 ± 0.066
8,K68Y,0.314 ± 0.24
9,I13R,-0.446 ± 0.062
10,I13L,-0.237 ± 0.061
11,I13E,-0.077 ± 0.14
12,E52I,-0.278 ± 0.061
13,E52Q,-1.04 ± 0.34
14,E52A,-0.462 ± 0.084
15,E52N,-0.793 ± 0.12
16,A6L,-0.666 ± 0.087
17,A6N,-0.976 ± 0.11
18,A6C,-0.634 ± 0.082
19,A6F,-0.987 ± 0.1
20,F7D,-0.848 ± 0.13
21,D43G,-0.402 ± 0.061
22,D43K,-0.205 ± 0.14
23,D43I,-0.272 ± 0.054
24,S22L,-0.522 ± 0.076

row,Variant,abundance fitness
1,S22F,0.118 ± 0.049
2,M19Q,-0.202 ± 0.15
3,M19H,-0.187 ± 0.079
4,M19W,-0.762 ± 0.19
5,E45F,-0.297 ± 0.052
6,I18F,-0.688 ± 0.1
7,I18S,-0.732 ± 0.083
8,I18N,-0.625 ± 0.097
9,K1L,-0.137 ± 0.11
10,P3H,-0.085 ± 0.077
11,P3A,-0.544 ± 0.096
12,P3F,-0.292 ± 0.12
13,P48E,-0.386 ± 0.22
14,P48W,-0.577 ± 0.24
15,P48A,-0.664 ± 0.14
16,H60V,-0.047 ± 0.061
17,H60Y,-0.03 ± 0.053
18,H60T,0.103 ± 0.074
19,H60Q,0.222 ± 0.12
20,P23I,-0.869 ± 0.095
21,P23Q,-0.706 ± 0.24
22,P23E,-0.49 ± 0.19
23,P23H,-0.791 ± 0.1
24,P23W,-1.09 ± 0.24

row,Variant,abundance fitness
1,G35P,-0.234 ± 0.1
2,G35W,-0.207 ± 0.11
3,G35H,0.266 ± 0.061
4,G35S,0.315 ± 0.043
5,I47G,-0.259 ± 0.042
6,I47W,-0.176 ± 0.083
7,R2S,0.064 ± 0.047
8,R2V,0.118 ± 0.055
9,R2K,-0.041 ± 0.12
10,K42V,-0.431 ± 0.055
11,K42H,-0.235 ± 0.067
12,K42C,-0.424 ± 0.061
13,L41H,-0.951 ± 0.13
14,M25C,-0.34 ± 0.058
15,R57N,0.414 ± 0.045
16,S44H,-0.053 ± 0.084
17,Q21M,-0.35 ± 0.11
18,M8E,0.299 ± 0.15
19,M8L,-0.039 ± 0.047
20,M8P,-0.609 ± 0.09
21,R33F,-0.001 ± 0.052
22,R33P,-0.75 ± 0.15
23,K46W,-0.995 ± 0.27
24,K46F,-0.987 ± 0.087

row,Variant,abundance fitness
1,K46I,-0.595 ± 0.065
2,M4V,0.005 ± 0.051
3,M4T,-0.145 ± 0.079
4,M4C,-0.787 ± 0.11
5,M4L,-0.188 ± 0.064
6,D24T,-0.22 ± 0.08
7,D24K,-0.578 ± 0.23
8,D24I,-0.538 ± 0.09
9,D24Y,-0.35 ± 0.062
10,D24E,-0.164 ± 0.17
11,F49R,-0.767 ± 0.091
12,F49S,-0.566 ± 0.065
13,A53D,-0.961 ± 0.12
14,A53S,-0.506 ± 0.056
15,A53L,-0.747 ± 0.095
16,K59V,0.012 ± 0.051
17,N27S,0.07 ± 0.049
18,N27A,0.177 ± 0.064
19,V9F,-0.63 ± 0.07
20,V9Y,-0.558 ± 0.069
21,V9I,0.037 ± 0.053
22,V9N,-0.734 ± 0.089
23,I50N,-0.323 ± 0.069
24,I50R,-0.01 ± 0.059

row,Variant,abundance fitness
1,W10L,-0.819 ± 0.095
2,W10G,-0.797 ± 0.14
3,W10F,-0.253 ± 0.054
4,W10M,-0.345 ± 0.14
5,W10V,-0.872 ± 0.13
6,W10S,-0.913 ± 0.1
7,L34Q,-0.638 ± 0.23
8,L34S,-0.719 ± 0.074
9,L34K,-1.29 ± 0.39
10,L34N,-0.82 ± 0.092
11,R15I,-0.267 ± 0.072
12,R15C,-0.384 ± 0.076
13,R15E,0.101 ± 0.17
14,H26I,-0.266 ± 0.059
15,H26G,0.22 ± 0.047
16,H26T,0.453 ± 0.058
17,H26Q,0.064 ± 0.095
18,H26M,-0.194 ± 0.15
19,E14F,-0.645 ± 0.088
20,E14A,-0.615 ± 0.076
21,E14H,-0.577 ± 0.13
22,E14C,-0.533 ± 0.11
23,E14W,-0.734 ± 0.45
24,P65R,-0.495 ± 0.43

row,Variant,abundance fitness
1,R16I,0.002 ± 0.054
2,I30H,-0.733 ± 0.097
3,I30G,-0.67 ± 0.089
4,S11V,-0.597 ± 0.15
5,S11D,-1.11 ± 0.25
6,W38A,-0.568 ± 0.09
7,W38M,-0.717 ± 0.23
8,M40S,0.023 ± 0.048
9,M40H,-0.119 ± 0.062
10,M40E,0.354 ± 0.19
11,M40V,-0.665 ± 0.069
12,E20I,-0.569 ± 0.085
13,E20R,-0.705 ± 0.12
14,E20H,-0.319 ± 0.14
15,E20M,-0.723 ± 0.28
16,N5G,-0.433 ± 0.069
17,N5S,0.104 ± 0.045
18,N5Q,-0.831 ± 0.27
19,K39M,-0.211 ± 0.12
20,M61G,0.07 ± 0.059
21,M61E,0.046 ± 0.12
22,K32G,-0.245 ± 0.063
23,K32V,-0.101 ± 0.057
24,K32W,-0.137 ± 0.14

row,Variant,abundance fitness
1,R51K,-0.054 ± 0.12
2,R51P,-0.473 ± 0.11
3,R51F,-0.411 ± 0.055
4,E54N,-0.241 ± 0.063
5,E54Y,-0.335 ± 0.067
6,E54V,-0.671 ± 0.074
7,K12A,0.175 ± 0.062
8,K12T,-0.119 ± 0.08
9,R55S,-0.146 ± 0.049
10,R55Y,-0.43 ± 0.061
11,R55H,-0.213 ± 0.06
12,L56Q,-0.26 ± 0.18
13,L56N,-0.347 ± 0.06
14,L56G,-0.39 ± 0.066
15,A62K,-0.085 ± 0.08
16,A62C,-0.062 ± 0.047
17,A62S,0.116 ± 0.039
18,E29Q,-0.517 ± 0.19
19,E29A,-0.436 ± 0.078
20,A28H,-0.183 ± 0.065
21,A28Y,-0.34 ± 0.059
22,A28Q,-0.247 ± 0.15
23,A28N,-0.24 ± 0.067

# — the Human Domainome abundance scans (Beltran et al. 2025)
